Residue numbers refer to the chain shown, from its start. Numbers in names are those of the source. Where “and” joins values, the source holds several entries; their conditions need not be identical. Equal values may be shown once. Ends that are not written are not given here. Peptide text beside a SMILES is read from it. * marks the point of attachment. FITC = O=C1OC2(c3ccc(O)cc3Oc3cc(O)ccc32)c2ccc(NC(=S)*)cc21
T1: Pex5p-S507/523D, recombinant His6-tagged phospho-mimicking mutant (S. cerevisiae, UniProt P35056 1-612, S507D | S523D)
T1 sequence: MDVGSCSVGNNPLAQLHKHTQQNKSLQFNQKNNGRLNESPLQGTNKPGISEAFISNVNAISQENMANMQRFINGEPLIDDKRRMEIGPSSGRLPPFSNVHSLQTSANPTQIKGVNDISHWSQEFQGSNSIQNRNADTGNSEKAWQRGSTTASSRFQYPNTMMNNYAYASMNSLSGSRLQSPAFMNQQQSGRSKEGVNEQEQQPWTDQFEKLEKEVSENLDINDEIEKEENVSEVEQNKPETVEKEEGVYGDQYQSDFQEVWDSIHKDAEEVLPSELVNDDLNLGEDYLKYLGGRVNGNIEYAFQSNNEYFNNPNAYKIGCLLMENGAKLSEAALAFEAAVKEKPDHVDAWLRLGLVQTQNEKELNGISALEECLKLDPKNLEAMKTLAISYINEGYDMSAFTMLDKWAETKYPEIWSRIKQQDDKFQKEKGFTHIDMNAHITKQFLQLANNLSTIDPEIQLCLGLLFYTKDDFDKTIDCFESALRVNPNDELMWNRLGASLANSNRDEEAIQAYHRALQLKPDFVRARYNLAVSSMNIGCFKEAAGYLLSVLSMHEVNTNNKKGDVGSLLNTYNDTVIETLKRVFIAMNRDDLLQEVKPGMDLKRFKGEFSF

T2: Pex5p wildtype, recombinant His6-tagged (HisPex5p) (S. cerevisiae, UniProt P35056 1-612)
T2 chain: T1 sequence with D507S, D523S

B1: Pcs60p, peroxisomal oxalyl-CoA synthetase, recombinant (natural protein, S. cerevisiae, UniProt P38137 1-543, looked up)
chain: MTSAATVTASFNDTFSVSDNVAVIVPETDTQVTYRDLSHMVGHFQTMFTNPNSPLYGAVFRQDTVAISMRNGLEFIVAFLGATMDAKIGAPLNPNYKEKEFNFYLNDLKSKAICVPKGTTKLQSSEILKSASTFGCFIVELAFDATRFRVEYDIYSPEDNYKRVIYRSLNNAKFVNTNPVKFPGFARSSDVALILHTSGTTSTPKTVPLLHLNIVRSTLNIANTYKLTPLDRSYVVMPLFHVHGLIGVLLSTFRTQGSVVVPDGFHPKLFWDQFVKYNCNWFSCVPTISMIMLNMPKPNPFPHIRFIRSCSSALAPATFHKLEKEFNAPVLEAYAMTEASHQMTSNNLPPGKRKPGTVGQPQGVTVVILDDNDNVLPPGKVGEVSIRGENVTLGYANNPKANKENFTKRENYFRTGDQGYFDPEGFLVLTGRIKELINRGGEKISPIELDGIMLSHPKIDEAVAFGVPDDMYGQVVQAAIVLKKGEKMTYEELVNFLKKHLASFKIPTKVYFVDKLPKTATGKIQRRVIAETFAKSSRNKSKL
notes: Pcs60p, peroxisomal oxalyl-CoA synthetase of S. cerevisiae, a PTS1-protein; GST tag removed with thrombin; native MS mass of the monomer printed as 60.632 kDa; also called wildtype Pcs60p; GSTPcs60p (before cleavage); source: E. coli BL21 RIL (DE3), purified (GSTrap, thrombin cleavage, SEC); not shown: GST, N-terminal, cleaved
B2: Pex5p wildtype, recombinant His6-tagged (HisPex5p) (natural protein, S. cerevisiae, UniProt P35056 1-612, looked up)
chain: T1 sequence with D507S, D523S
notes: Pex5p, PTS1 receptor of Saccharomyces cerevisiae, UniProtKB P35056, full length; No cleavage of the His tag is described; the native MS mass of the monomer is printed as 71.459 kDa; also called Pex5p^WT; source: E. coli BL21 RIL (DE3), purified (Ni-NTA, MonoQ anion exchange, SEC)
B3: Pex5p-S507/523D, recombinant His6-tagged phospho-mimicking mutant (natural protein, S. cerevisiae, UniProt P35056 1-612, looked up)
chain: T1 sequence
notes: Pex5p, PTS1 receptor of Saccharomyces cerevisiae, UniProtKB P35056, full length, with S507D and S523D; No cleavage of the His tag is described; the native MS mass of the monomer is printed as 71.515 kDa; also called Pex5p^2D; Pex5p-S507D/523D; source: E. coli BL21 RIL (DE3), purified (Ni-NTA, MonoQ anion exchange, SEC)

How the values were obtained:
Pex5p^2D = molecular target: T3, Pex5p^2D (Saccharomyces cerevisiae, UniProt P35056, S507D/S523D); test: biochemical; type: binding
T3 construct: 10 μM full-length Pex5p^WT and Pex5p^2D mutant as a sample in the cell; made in house; host or cells: E. coli BL21 RIL (DE3)
From the text: The elution of proteins was monitored at 280 nm.

[1] = molecular target: T1, Pex5p-S507/523D, recombinant …; test: ITC; representative single titration
[2] = molecular target: T2, Pex5p wildtype, recombinant His6-tagged …; test: ITC; representative single titration
[3] = molecular target: B2; test: native MS; Pex5p variant (7.5 µM) mixed with Pcs60p (5 µM), 5 min on ice; 200 mM ammonium acetate pH 6.8; collision energy 100 V; details: both partners purified
[4] = molecular target: B3; test: as above; details: both partners purified
[5] = molecular target: B2; test: ITC; MicroCal VP-ITC, 25 °C; 10 µM Pex5p variant in the cell, 100 µM Pcs60p as titration ligand, 30 injections of 10 µl; 50 mM HEPES pH 7.5, 150 mM NaCl; details: both partners purified
[6] = molecular target: B3; test: as above; details: both partners purified
[7] = molecular target: the molecule itself; test: native MS; single purified proteins in 200 mM ammonium acetate pH 6.8; collision energy 100 V
[8] = molecular target: B2; test: fluorescence polarisation; fluorescence anisotropy; 10 nM FITC-labelled Idp3p peptide, serial dilutions of Pex5p variant 160 nM to 38 µM; 50 mM HEPES pH 7.5, 150 mM NaCl; one-site binding-saturation fit; details: both partners purified

**Q.** For CC(C)C[C@H](NC(=O)[C@H](CCCNC(=N)N)NC(=O)[C@H](CO)NC(=O)[C@H](CO)NC(=O)[C@H](CCCNC(=N)N)NC(=O)[C@H](CCCCN)NC(=O)[C@@H](NC(=O)[C@H](CCCNC(=N)N)NC(=O)[C@H](C)NC(=O)[C@H](Cc1ccc(O)cc1)NC(=S)Nc1ccc2c(c1)C(=O)OC21c2ccc(O)cc2Oc2cc(O)ccc21)C(C)C)C(=O)O [Lys1p peptide] ({FITC}-YARVKRSSRL-OH), which Kd (Pex5p^2D) is on record?
**A.** The Kd was 3690 ± 1580 nM.

**Q.** CC(C)C[C@H](NC(=O)[C@H](CCCCN)NC(=O)[C@H](C)NC(=O)[C@H](CCCCN)NC(=O)[C@H](CCCNC(=N)N)NC(=O)[C@H](CCCCN)NC(=O)[C@H](CC(N)=O)NC(=O)[C@H](CCC(=O)O)NC(=O)[C@H](CC(N)=O)NC(=O)[C@H](Cc1ccc(O)cc1)NC(=S)Nc1ccc2c(c1)C(=O)OC21c2ccc(O)cc2Oc2cc(O)ccc21)C(=O)O [Cat2p peptide] ({FITC}-YNENKRKAKL-OH) was tested. Which Kd (Pex5p^2D) did it give?
**A.** Its Kd is 897 nM.

**Q.** How did the Kd [1] turn out when B1 was run?
**A.** The Kd was 271 nM.

**Q.** What about the Kd [2] of the same molecule?
**A.** Its Kd is 13 nM.

**Q.** What about the “stoichiometry N” value [3] of the same molecule?
**A.** The value was 1 Pcs60p per Pex5p (2:2 receptor-cargo complex) and 1 Pcs60p per Pex5p and 2 Pcs60p per Pex5p (1:2 receptor-cargo complex).

**Q.** And the “stoichiometry N” value [4]?
**A.** Its value is 1 Pcs60p per Pex5p and 2 Pcs60p per Pex5p (1:2 receptor-cargo complex) and 1 Pcs60p per Pex5p (2:2 receptor-cargo complex).

**Q.** What about the Kd [5] of the same molecule?
**A.** The Kd was 17.4 nM.

**Q.** And the Kd [6]?
**A.** The Kd was 338 nM.

**Q.** For B2, which “stoichiometry N” value [7] is on record?
**A.** The value was 2.

**Q.** How did the “stoichiometry N” value [7] turn out when B3 was run?
**A.** Its value is 2.

**Q.** Which Kd [8] does the source give for {FITC}-YNEDKKGMCKL [Idp3p nonapeptide, FITC-YNEDKKGMCKL] here?
**A.** The Kd was 5540 nM.

Source: paper PMC9929924, “Phosphorylation of the receptor protein Pex5p modulates import of proteins into peroxisomes” (Biological Chemistry, 2022)
